Biological target: Maleimide-modified SpyTag peptide (MCA-SpyTag)
Experiment: QCMD, nanobody-SpyCatcher coupling to maleimide-SpyTag peptide on HDT SAM

Substance: VHH72-8 aa-spyCatcher-3C cleavage site-His8
- Density per cm^2: 6.5e+12 per cm^2
- gained mass (ng/cm^2): 313 ng/cm^2
